Test results reported in patent publication US20240035022A1.

Molecular target: hCD52 peptide mimetope (affinity measurement of Table 1) (human)
Experiment: affinity on a hCD52 peptide mimetope, method not stated (footnote of Table 1)

In the case of Campath-1H (antibody), the Kd is reported as 0.068 µM.
